Broadly, the stoichiometry N is the number of molecules, sites or subunits per partner or assembly.

The text below walks through data of article PMC3840220.

The target of the experiment is bromelain-released influenza hemagglutinin (X31) (influenza virus X31). Put plainly: […].

With “bromelain-released influenza hemagglutinin (X31) (domain or fragment)”, the stoichiometry N was found to be 3.
